The values below come from article PMC9410871, “Structural basis of DNA packaging by a ring-type ATPase from an archetypal viral system” (Nucleic Acids Research, 2022).

Series [1] deals with HK97 small terminase (TerS) protein GP1 (bacteriophage HK97). Kind of series: SEC-MALS; TerS in solution; conditions not told in the main text. (SEC sorts molecules by how far they enter the pores of the column.)
For series [2] the target is unchanged. Put plainly: crystal structure; TerS 22 mg/mL in 300 mM potassium glutamate, 20 mM HEPES pH 7.0; reservoir 9% PEG 3350, 0.1 M succinic acid pH 7.0; three subunits in the asymmetric unit around a crystallographic 3-fold axis.
For series [3] the target is unchanged. Put plainly: native MS; TerS buffer-exchanged into 200 mM ammonium acetate, pH 7.5; modified Q-Exactive Orbitrap, positive ion mode, static nanospray.
Series [4] deals with the molecule itself. Kind of series: cryo-EM structure; packaging reaction with 125 nM prohead, 125 nM ScaI-linearized pUC18 DNA, 1 uM TerL, 2 uM TerS, vitrified about 30 s after 1 mM ATP; 5-fold symmetry applied to resolve TerL, 6-fold to resolve the portal.

For the molecule “HK97 small terminase (TerS) protein GP1 (natural protein)”, the stoichiometry N in series [1], in series [2] and in series [3] was 9 throughout.

B1: HK97 portal (portal complex of the procapsid) (natural protein, bacteriophage HK97, UniProt P49859 1-424, looked up)
chain: MEEPKYTIDLRTNNGWWARLKSWFVGGRLVTPNQGSQTGPVSAHGYLGDSSINDERILQISTVWRCVSLISTLTACLPLDVFETDQNDNRKKVDLSNPLARLLRYSPNQYMTAQEFREAMTMQLCFYGNAYALVDRNSAGDVISLLPLQSANMDVKLVGKKVVYRYQRDSEYADFSQKEIFHLKGFGFTGLVGLSPIAFACKSAGVAVAMEDQQRDFFANGAKSPQILSTGEKVLTEQQRSQVEENFKEIAGGPVKKRLWILEAGFSTSAIGVTPQDAEMMASRKFQVSELARFFGVPPHLVGDVEKSTSWGSGIEQQNLGFLQYTLQPYISRWENSIQRWLIPSKDVGRLHAEHNLDGLLRGDSASRAAFMKAMGESGLRTINEMRRTDNMPPLPGGDVAMRQAQYVPITDLGTNKEPRNNGA
notes: Portal protein of bacteriophage HK97, within the procapsid; Seen only as part of the procapsid m4; source: E. coli 594 infected with HK97 amber mutant amC2; within purified procapsids; copies: 12
In the case of B1, the stoichiometry N (usually the number of molecules, sites or subunits per partner or assembly) in series [4] turned out to be 12.
